How the values were obtained:
Test in all cases: BLI (Octet), biotinylated RBD on streptavidin biosensor, Fab in solution
[1] = target: Delta strain RBD, biotinylated (SARS-CoV-2 (Delta strain), UniProt P0DTC2 331-529)
[2] = target: Omicron strain (BA.1) RBD, biotinylated (SARS-CoV-2 (Omicron strain BA.1), UniProt P0DTC2 331-529)
[3] = target: Omicron strain (BA.2) RBD, biotinylated (SARS-CoV-2 (Omicron strain BA.2), UniProt P0DTC2 331-529)

Measured: Kd

B1: recombinant Fab protein of antibody No. 2 (Fab, V domains shown)
VH: EVQLVESGGGVVQPGRSLRLSCAASGFKFSKFAMHWVRQAPGKGPEWVAVISYDGNQYHSADSVKGRFTISRDNSFNTLYLQMNSLGPEDTAVYYCARDGPDTSGYYANIYFDFWGQGTLVTVSS
VL: QSVLTQPPSVSGAPGQRVTISCTGSSSNIGAGYDVHWYQQLPGRAPKLLIFDNNNRPSGVPDRFSGSKSGTSASLAITGLQTEDEAYYYCQSYDNSLILAVFGGGTKVTVL
≤ 100 nM: all assays above

B2: recombinant Fab protein of antibody No. 5 (Fab, V domains shown)
VH: EVQLVESGGGLVQPGGSLRLSCAASGFTFYSYWMTWVRQAPGKGLEWVANIKHDESESHYVDSVRGRFTISRDNAKNSVYLQMKGLRAEDTAVYYCARDGGYNILTAYYHAPSYWGQGTLVTVSS
VL: QSALTQPASVSGSPGQSITISCTGTSSDVGGYNFVSWYRQYPGKAPQLMIYDVSRRPSGDSDRFSGSKSGNTASLTISGLQAEDEAEYHCSSYTGRSPYVVFGGGTKVTVL
≤ 100 nM: all assays above

B3: recombinant Fab protein of antibody No. 7 (Fab, V domains shown)
VH: EVQLLESGGGLVQPGGSLRLSCAASGFTFSRYALSWVRQAPGKGLEWVSAISGAAITTYYADSVKGRFTISRDDSRNTLFMQMDSLRAEDTAVYYCAKGDYYDSSGYLAEYFPHWGQGTLVTVSS
VL: SYELTQPPSVSVSPGQTARITCFADALPKQHAYWYQQKAGQAPVLVIFKDTERPSGIPKRFSGSRSGATVTLTISGVQAEDEADYYCQSTDISGVLFGGGTKLTVL
≤ 100 nM: all assays above

B4: recombinant Fab protein of antibody No. 6 (Fab, V domains shown)
VH: QVQLVQSGPEVKKPGTSVKVSCKASGFTFYYSAVQWVRQARGQRLEWLGWMAVGSGKANYAQKFQERLTLTRDMSTSTAYMELSSLRSEDTAVYYCAAPNCTGGSCYDGFNLWGQGTVVTVSS
VL: EIVLTQSPGTLSLSPGDRAILSCRASQTVNSNYLAWYQQKPGQAPRLLIYGTSSRATGIPDRFSGSGSGTDFTLTISRLEPEDFAVYYCQQYGSSPWLFGQGTKVEIK
≤ 100 nM: all assays above

From patent publication WO2024019110A1 (dated 2024)
